Test results taken from patent US20110262446A1.
Where a chain is given by its changes, count along the chain named.

B1: M0063-F02 Fab (Fab, V domains shown)
VH: EVQLLESGGGLVQPGGSLRLSCAASGFTFSKYEMDWVRQAPGKGLEWVSVISSSGGGTIYADSVKGRFTISRDNSKNTLYLQMNSLRAEDTAMYYCARGRTLYGGAFDIWGQGTMVTVSS
VL: DIQMTQSPSSLSASVGDRVTITCRASQPINTYLNWYQQRPGKAPRILIYTSSTLQSGVPSRFSGSGSGTDFTLTISSVQPEDFATYYCQQSYSFPLTFGGGTKVEIKR
B2: M0072-C06 Fab (Fab, V domains shown)
VH: EVQLLESGGGLVQPGGSLRLSCAASGFTFSAYIMTWVRQAPGKGLEWVSSISPSGGYTVYADSVKGRFTISRDNSKNTLYLQMNSLRAEDTAVYYCARDSGFGDPFDYWGQGTMVTVSS
VL: DIQMTQSPSSLSASVGDRVTITCRASQSIRNYLNWYQQKPGKAPKLLIYAASKLEDGVPSRFSGSGTGTDFTLTIRSLQPEDFASYFCQQSYSSPGITFGPGTKVEIKR
B3: M0063-F02 IgG (antibody, V domains shown)
VH: B1 VH
VL: DIQMTQSPSSLSASVGDRVTITCRASQPINTYLNWYQQRPGKAPRILIYTSSTLQSGVPSRFSGSGSGTDFTLTISSVQPEDFATYYCQQSYSFPLTFGGGTKVEIK
B4: M0064-E04 IgG (antibody, V domains shown)
VH: EVQLLESGGGLVQPGGSLRLSCAASGFTFSVYDMNWVRQAPGKGLEWVSSISSSGGGTLYADSVKGRFTISRDNSKNTLYLQMNSLRAEDTAVYYCARDSDTSSYYWYYDLWGRGTLVTVSS
VL: DIQMTQSPSSLSASVGDRVTITCQASHDISNYLNWYQQKPGKAPKLLIYAASRLQSGVPSRFSGGGSGTDFSLTISSLQAEDFATYYCQQSYSFPRTFGQGTNLEIK
B5: M0070-H08 IgG (antibody, V domains shown)
VH: EVQLLESGGGLVQPGGSLRLSCAASGFTFSRYWMIWVRQAPGKGLEWVSSIRSSGETKYADSVKGRFTISRDNSKNTLYLQMNSLRAEDTAVYYCARGPLSDYYDSSGYYFDAFDIWGQGTMVTVSS
VL: DIQMTQSPSSLSASAGDRVTITCRASQSISSYLNWYQQKPGKAPNLLIYTTSNLQGGVPSRFSGSGSGTDFTLTISSLQPEDFATYYCQQGYSFPLTFGGGTKVEIK
B6: M0072-C06 IgG (antibody, V domains shown)
VH: B2 VH
VL: DIQMTQSPSSLSASVGDRVTITCRASQSIRNYLNWYQQKPGKAPKLLIYAASKLEDGVPSRFSGSGTGTDFTLTIRSLQPEDFASYFCQQSYSSPGITFGPGTKVEIK
B7: M0070-H08 Fab (Fab, V domains shown)
VH: B5 VH
VL: DIQMTQSPSSLSASAGDRVTITCRASQSISSYLNWYQQKPGKAPNLLIYTTSNLQGGVPSRFSGSGSGTDFTLTISSLQPEDFATYYCQQGYSFPLTFGGGTKVEIKR
B8: X0008-A01 (germlined M0064-F02 IgG) (antibody, V domains shown)
VH: EVQLLESGGGLVQPGGSLRLSCAASGFTFSNYIMWWVRQAPGKGLEWVSVISSSGGMTRYADSVKGRFTISRDNSKNTLYLQMNSLRAEDTAVYYCARDNGDYVGEKGFDIWGQGTMVTVSS
VL: DIQMTQSPSSLSASVGDRVTITCRASQSISNYLNWYQQKPGKAPKLLIYTASTLQSGVPSRFSGSGSGTDFTLTISSLQPEDFATYYCQQSYNSPWTFGQGTKVEIK
B9: X0005-H01 (germlined M0064-E04 IgG) (antibody, V domains shown)
VH: B4 VH
VL: B4 VL with G65S, S72T, A80P, N103R

Columns and labels:
[1] = target: IGF-IIE (amino acids 1-104) (human) (UniProt P01344); test: SPR (Flexchip), Fab, second of duplicate; unit inferred
Chain of IGF-IIE (amino acids 1-104) (human) (P01344 25-128 limits assumed, form in doubt): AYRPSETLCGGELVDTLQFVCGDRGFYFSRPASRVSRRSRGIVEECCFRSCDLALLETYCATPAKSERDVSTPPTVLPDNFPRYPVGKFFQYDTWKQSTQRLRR

[2] = target: IGF-IIE (amino acids 1-104) (human) (UniProt P01344); test: competition SPR (Biacore T100), affinity in solution: Fab pre-incubated with ligand, free ligand read on immobilized huIR-A ECD; measurement #2; head prints 'KD nM'
[3] = target: IGF-IIE (amino acids 1-104) (human) (UniProt P01344); test: cell-based or functional assay
[4] = target: IGF-IIE (amino acids 1-104) (human) (UniProt P01344); test: SPR (Flexchip), Fab, first of duplicate; unit inferred
[5] = target: IGF-IIE (amino acids 1-104) (human) (UniProt P01344); test: competition SPR (Biacore T100), affinity in solution: Fab pre-incubated with ligand, free ligand read on immobilized huIR-A ECD; measurement #1; head prints 'KD nM'
[6] = target: IGF-IIE (amino acids 1-104) (human) (UniProt P01344); test: SPR (Biacore T100): IgG captured on Protein G', ligand bound, then BP injected; competitor BP2
[7] = target: IGF-IIE (amino acids 1-104) (human) (UniProt P01344); test: SPR (Biacore T100): IgG captured on Protein G', ligand bound, then BP injected; competitor BP4
[8] = target: IGF-IIE (amino acids 1-104) (human) (UniProt P01344); test: SPR (Biacore), non-germlined IgG
[9] = target: IGF-IIE (amino acids 1-104) (human) (UniProt P01344); test: SPR (Biacore), germlined IgG

Binder	Kd [4] [nM]	Kd [5] [nM]	competition score (0 = does not compete significantly, 5 = competes strongly) [6] [score 0-5]	competition score (0 = does not compete significantly, 5 = competes strongly) [7] [score 0-5]	also measured
B1	0.12	2.78			Kd [1]: 0.2 nM; Kd [2]: 1.47 nM; IC50, IGF-IIE stimulated BA/F3 cell proliferation (MTS) [3]: 2.04 µg/mL
B2	0.52	3.95			Kd [2]: 1.05 nM; IC50, IGF-IIE stimulated BA/F3 cell proliferation (MTS) [3]: 2.3 µg/mL
B3			1	1	IC50, IGF-IIE stimulated BaF3 cell proliferation (Guava ViaCount) [3]: 0.85 nM; IC50, IGF-IIE stimulated BaF3 cell proliferation (Guava ViaCount), second study [3]: 10 nM
B4			4	4	Kd [8]: 0.24 nM; IC50, IGF-IIE stimulated BaF3 cell proliferation (Guava ViaCount) [3]: 130 nM
B5			2	1	
B6			2	1	
B7	0.36	4.83			Kd [1]: 0.39 nM
B8					Kd [9]: < 0.023 nM
B9					Kd [9]: 0.26 nM
